# Reference: IntAct's records for PubMed 25910212
# B1: Aspartoacylase (Homo sapiens), P45381 (parent)
# chain: MTSCHIAEEHIQKVAIFGGTHGNELTGVFLVKHWLENGAEIQRTGLEVKPFITNPRAVKKCTRYIDCDLNRIFDLENLGKKMSEDLPYEVRRAQEINHLFGPKDSEDSYDIIFDLHNTTSNMGCTLILEDSRNNFLIQMFHYIKTSLAPLPCYVYLIEHPSLKYATTRSIAKYPVGIEVGPQPQGVLRADILDQMRKMIKHALDFIHHFNEGKEFPPCAIEVYKIIEKVDYPRDENGEIAAIIHPNLQDQDWKPLHPGDPMFLTLDGKTIPLGGDCTVYPVFVNEAAYYEKKEAFAKTTKLTLNAKSIRCCLH
# partner: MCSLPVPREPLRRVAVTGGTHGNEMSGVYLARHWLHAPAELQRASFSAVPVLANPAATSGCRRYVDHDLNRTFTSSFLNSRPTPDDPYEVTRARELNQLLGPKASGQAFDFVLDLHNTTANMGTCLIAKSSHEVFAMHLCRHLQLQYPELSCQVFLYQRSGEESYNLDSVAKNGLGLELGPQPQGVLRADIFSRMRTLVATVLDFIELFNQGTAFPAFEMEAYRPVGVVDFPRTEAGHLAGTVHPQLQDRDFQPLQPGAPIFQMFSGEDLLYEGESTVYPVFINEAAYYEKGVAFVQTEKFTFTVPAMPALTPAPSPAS
# B2: Estrogen receptor beta (Homo sapiens), Q92731-3 (parent)
# chain: MDIKNSPSSLNSPSSYNCSQSILPLEHGSIYIPSSYVDSHHEYPAMTFYSPAVMNYSIPSNVTNLEGGPGRQTTSPNVLWPTPGHLSPLVVHRQLSHLYAEPQKSPWCEARSLEHTLPVNRETLKRKVSGNRCASPVTGPGSKRDAHFCAVCSDYASGYHYGVWSCEGCKAFFKRSIQGHNDYICPATNQCTIDKNRRKSCQACRLRKCYEVGMVKCGSRRERCGYRLVRRQRSADEQLHCAGKAKRSGGHAPRVRELLLDALSPEQLVLTLLEAEPPHVLISRPSAPFTEASMMMSLTKLADKELVHMISWAKKIPGMRGNA
# partner: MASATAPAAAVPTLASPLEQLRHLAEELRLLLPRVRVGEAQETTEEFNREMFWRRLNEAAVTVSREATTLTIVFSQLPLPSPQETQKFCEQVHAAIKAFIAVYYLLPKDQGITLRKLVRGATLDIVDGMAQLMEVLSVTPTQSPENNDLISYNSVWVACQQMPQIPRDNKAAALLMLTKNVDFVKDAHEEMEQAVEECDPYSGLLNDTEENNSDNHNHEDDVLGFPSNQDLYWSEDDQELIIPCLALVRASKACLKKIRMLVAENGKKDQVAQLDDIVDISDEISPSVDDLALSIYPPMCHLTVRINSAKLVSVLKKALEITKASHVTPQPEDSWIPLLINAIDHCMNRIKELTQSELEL
# B3: Keratin, type II cytoskeletal 6A (Homo sapiens), P02538 (parent)
# chain: MASTSTTIRSHSSSRRGFSANSARLPGVSRSGFSSVSVSRSRGSGGLGGACGGAGFGSRSLYGLGGSKRISIGGGSCAISGGYGSRAGGSYGFGGAGSGFGFGGGAGIGFGLGGGAGLAGGFGGPGFPVCPPGGIQEVTVNQSLLTPLNLQIDPTIQRVRAEEREQIKTLNNKFASFIDKVRFLEQQNKVLETKWTLLQEQGTKTVRQNLEPLFEQYINNLRRQLDSIVGERGRLDSELRGMQDLVEDFKNKYEDEINKRTAAENEFVTLKKDVDAAYMNKVELQAKADTLTDEINFLRALYDAELSQMQTHISDTSVVLSMDNNRNLDLDSIIAEVKAQYEEIAQRSRAEAESWYQTKYEELQVTAGRHGDDLRNTKQEIAEINRMIQRLRSEIDHVKKQCANLQAAIADAEQRGEMALKDAKNKLEGLEDALQKAKQDLARLLKEYQELMNVKLALDVEIATYRKLLEGEECRLNGEGVGQVNISVVQSTVSSGYGGASGVGSGLGLGGGSSYSYGSGLGVGGGFSSSSGRAIGGGLSSVGGGSSTIKYTTTSSSSRKSYKH
# partner: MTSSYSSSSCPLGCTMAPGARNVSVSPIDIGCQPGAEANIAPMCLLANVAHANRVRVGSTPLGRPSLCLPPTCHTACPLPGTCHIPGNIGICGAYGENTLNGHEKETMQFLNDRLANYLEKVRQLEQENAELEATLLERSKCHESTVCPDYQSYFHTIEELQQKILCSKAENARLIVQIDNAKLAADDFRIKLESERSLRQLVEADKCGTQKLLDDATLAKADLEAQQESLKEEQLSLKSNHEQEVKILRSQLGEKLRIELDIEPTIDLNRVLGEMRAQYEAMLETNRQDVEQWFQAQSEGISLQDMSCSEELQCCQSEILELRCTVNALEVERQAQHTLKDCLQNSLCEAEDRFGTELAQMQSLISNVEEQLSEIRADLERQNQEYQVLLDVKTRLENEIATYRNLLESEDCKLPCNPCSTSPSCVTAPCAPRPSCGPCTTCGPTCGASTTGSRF
# B4: Keratin, type II cytoskeletal 2 epidermal (Homo sapiens), P35908 (parent)
# chain: MSCQISCKSRGRGGGGGGFRGFSSGSAVVSGGSRRSTSSFSCLSRHGGGGGGFGGGGFGSRSLVGLGGTKSISISVAGGGGGFGAAGGFGGRGGGFGGGSSFGGGSGFSGGGFGGGGFGGGRFGGFGGPGGVGGLGGPGGFGPGGYPGGIHEVSVNQSLLQPLNVKVDPEIQNVKAQEREQIKTLNNKFASFIDKVRFLEQQNQVLQTKWELLQQMNVGTRPINLEPIFQGYIDSLKRYLDGLTAERTSQNSELNNMQDLVEDYKKKYEDEINKRTAAENDFVTLKKDVDNAYMIKVELQSKVDLLNQEIEFLKVLYDAEISQIHQSVTDTNVILSMDNSRNLDLDSIIAEVKAQYEEIAQRSKEEAEALYHSKYEELQVTVGRHGDSLKEIKIEISELNRVIQRLQGEIAHVKKQCKNVQDAIADAEQRGEHALKDARNKLNDLEEALQQAKEDLARLLRDYQELMNVKLALDVEIATYRKLLEGEECRMSGDLSSNVTVSVTSSTISSNVASKAAFGGSGGRGSSSGGGYSSGSSSYGSGGRQSGSRGGSGGGGSISGGGYGSGGGSGGRYGSGGGSKGGSISGGGYGSGGGKHSSGGGSRGGSSSGGGYGSGGGGSSSVKGSSGEAFGSSVTFSFR
# partner: B3 partner
# Variants of: B1
# Settings: with acy3_human ACY3, Q96HD9
row,effect of a mutation on the interaction,Variant
1,disrupting interaction strength,MTSCHIAEEHIQKVAIFGGTHGNGLTGVFLVKHWLENGAEIQRTGLEVKPFITNPRAVKKCTRYIDCDLNRIFDLENLGKKMSEDLPYEVRRAQEINHLFGPKDSEDSYDIIFDLHNTTSNMGCTLILEDSRNNFLIQMFHYIKTSLAPLPCYVYLIEHPSLKYATTRSIAKYPVGIEVGPQPQGVLRADILDQMRKMIKHALDFIHHFNEGKEFPPCAIEVYKIIEKVDYPRDENGEIAAIIHPNLQDQDWKPLHPGDPMFLTLDGKTIPLGGDCTVYPVFVNEAAYYEKKEAFAKTTKLTLNAKSIRCCLH [E24G]
2,disrupting interaction strength,MTSCHIAEEHIQKVAIFGGTHGNELTGVFLVKHWLENGAEIQRTGLEVKPFITNPRAVKKCTRYIDCDLNRIFDLENLGKKMSEDLPYEVRRAQEINHLFGPKDSEDSYDIIFDLHNTTSNMGCTLILEDSRNNFLIQMFHYIKTSLAPLPCYVYLIEHPSLKYATTRSIAKYPVGIEVGPQPQGVLRADILDQRRKMIKHALDFIHHFNEGKEFPPCAIEVYKIIEKVDYPRDENGEIAAIIHPNLQDQDWKPLHPGDPMFLTLDGKTIPLGGDCTVYPVFVNEAAYYEKKEAFAKTTKLTLNAKSIRCCLH [M195R]

# Variants of: B2
# Settings: with ccdb1_human CCNDBP1, O95273
row,effect of a mutation on the interaction,Variant
1,causing an interaction,MDIKNSPSSLNSPSSYNCSQSILPLEHGSIYIPSSYVDSHHEYPAMTFYSPAVMNYSIPSNVTNLEGGPGRQTTSPNVLWPTPGHLSPLVVHRQLSHLYAEPQKSPWCEARSLEHTLPVNRETLKRKVSGNRCASPVTGPGSKRDAHFCAVCSDYASGYHYGVWSCEGCKAFFKRSIQGHNDYICPATNQCTIDKNRRKSCQACRLRKCYEVGMVKCGSRRERCGYRLVRRQRSADEQLHCAGKAKRSGGHAPRVRELLLDALSPEQLVLTLLEAEPPHVLISRPSAPLTEASMMMSLTKLADKELVHMISWAKKIPGMRGNA [F289L]

# Variants of: B3
# Settings: with krt38_human KRT38, O76015
row,effect of a mutation on the interaction,Variant
1,with no effect,MASTSTTIRSHSSSRRGFSANSARLPGVSRSGFSSVSVSRSRGSGGLGGACGGAGFGSRSLYGLGGSKRISIGGGSCAISGGYGSRAGGSYGFGGAGSGFGFGGGAGIGFGLGGGAGLAGGFGGPGFPVCPPGGIQEVTVNQSLLTPLNLQIDPTIQRVRAEEREQIKTLNNKFASFIDKVRFLEQQNKVLETKWTLLQEQGTKTVRQNLEPLFEQYINNLRRQLDSIVGERGRLDSELRGMQDLVEDFKNKYEDEINKRTAAENEFVTLKKDVDAAYMNKVELQAKADTLTDEINFLRALYDAELSQMQTHISDTSVVLSMDNNRNLDLDSIIAEVKAQYEEIAQRSRAEAESWYQTKYEELQVTAGRHGDDLRNTKQEIAEINRMIQRLRSEIDHVKKQCANLQAAIADAEQRGEMALKDAKNKLEGLEDALQKAKQDLARLLKEYQELMNVKLALDVEIATYRKLLEGEECRLNGEGVGQVNISVVQSTVSSGYGGASGVGSGLGLGGGSSYSYGSGLGFGGGFSSSSGRAIGGGLSSVGGGSSTIKYTTTSSSSRKSYKH [V523F]
2,with no effect,MASTSTTIRSHSSSRRGFSASSARLPGVSRSGFSSVSVSRSRGSGGLGGACGGAGFGSRSLYGLGGSKRISIGGGSCAISGGYGSRAGGSYGFGGAGSGFGFGGGAGIGFGLGGGAGLAGGFGGPGFPVCPPGGIQEVTVNQSLLTPLNLQIDPTIQRVRAEEREQIKTLNNKFASFIDKVRFLEQQNKVLETKWTLLQEQGTKTVRQNLEPLFEQYINNLRRQLDSIVGERGRLDSELRGMQDLVEDFKNKYEDEINKRTAAENEFVTLKKDVDAAYMNKVELQAKADTLTDEINFLRALYDAELSQMQTHISDTSVVLSMDNNRNLDLDSIIAEVKAQYEEIAQRSRAEAESWYQTKYEELQVTAGRHGDDLRNTKQEIAEINRMIQRLRSEIDHVKKQCANLQAAIADAEQRGEMALKDAKNKLEGLEDALQKAKQDLARLLKEYQELMNVKLALDVEIATYRKLLEGEECRLNGEGVGQVNISVVQSTVSSGYGGASGVGSGLGLGGGSSYSYGSGLGVGGGFSSSSGRAIGGGLSSVGGGSSTIKYTTTSSSSRKSYKH [N21S]
3,with no effect,MASTSTTIRSHSSSRRGFSANSARLPGVSRSGFSSVSVSRSRGSGGLGGACGGAGFGSRSLYGLGGSKRISIGGGSCAISGGYGSRAGGSYGFGGAGSGFGFGGGAGIGFGLGGGAGLAGGFGGPGFPVCPPGGIQEVTVNQSLLTPLNLQIDPTIQRVRAEEREQIKTLNNKFASFIDKVRFLEQQNKVLETKWTLLQEQGTKTVRQNLEPLFEQYINNLRRQLDSIVGERGRLDSELRGMQDLVEDLKNKYEDEINKRTAAENEFVTLKKDVDAAYMNKVELQAKADTLTDEINFLRALYDAELSQMQTHISDTSVVLSMDNNRNLDLDSIIAEVKAQYEEIAQRSRAEAESWYQTKYEELQVTAGRHGDDLRNTKQEIAEINRMIQRLRSEIDHVKKQCANLQAAIADAEQRGEMALKDAKNKLEGLEDALQKAKQDLARLLKEYQELMNVKLALDVEIATYRKLLEGEECRLNGEGVGQVNISVVQSTVSSGYGGASGVGSGLGLGGGSSYSYGSGLGVGGGFSSSSGRAIGGGLSSVGGGSSTIKYTTTSSSSRKSYKH [F249L]
4,with no effect,MASTSTTIRSHSSSRRGFSANSARLPGVSRSGFSSVSVSRSRGSGGLGGACGGAGFGSRSLYGLGGSKRISIGGGSCAISGGYGSRAGGSYGFGGAGSGFGFGGGAGIGFGLGGGAGLAGGFGGPGFPVCPPGGIQEVTVNQSLLTPLNLQIDPTIQRVRAEEREQIKTLNNKFASFIDKVRFLEQQNKVLETKWTLLQEQGTKTVRQNLEPLFEQYINNLRRQLDSIVGERGRLDSELRGMQDLVEDFKNKYEDEINKRTAAENEFVTLKKDVDAAYMNKVELQAKADTLTDEINFLRALYDAELSQMQTHISDTSVVLSMDNNRNLDLDSIIAEVKAQYEEIAQRSRAEAESWYQTKYEELQVTAGRHGDDLRNTKQEIAEINRMIQRLRSEIDHVKKQCANLQAAIADAEQRGEMALKDAKNKLEGLEDALQKAKQDLARLLKEYQELMNVKLALDVEIATYRKLLEGEECRLNGEGVGQVNISVVQSTVSSGYGGASGVGSGLGLGGGSSYSYGSGLGVGGGFSSSSGRAIGGGLSSVGGGSSTIKYSTTSSSSRKSYKH [T552S]

# Variants of: B3
# Settings: with krt38_human KRT38, O76015
# Remark: another data set of the same source
row,effect of a mutation on the interaction,Variant
1,with no effect,MASTSTTIRSHSSSRRGFSANSARLPGVSRSGFSSVSVSRSRGSGGLGGACGGAGFGSRSLYGLGGSKRISIGGGSCAISGGYGSRAGGSYGFGGAGSGFGFGGGAGIGFGLGGGAGLAGGFGGPGFPVCPPGGIQEVTVNQSLLTPLNLQIDPTIQRVRAEEREQIKTLKNKFASFIDKVRFLEQQNKVLETKWTLLQEQGTKTVRQNLEPLFEQYINNLRRQLDSIVGERGRLDSELRGMQDLVEDFKNKYEDEINKRTAAENEFVTLKKDVDAAYMNKVELQAKADTLTDEINFLRALYDAELSQMQTHISDTSVVLSMDNNRNLDLDSIIAEVKAQYEEIAQRSRAEAESWYQTKYEELQVTAGRHGDDLRNTKQEIAEINRMIQRLRSEIDHVKKQCANLQAAIADAEQRGEMALKDAKNKLEGLEDALQKAKQDLARLLKEYQELMNVKLALDVEIATYRKLLEGEECRLNGEGVGQVNISVVQSTVSSGYGGASGVGSGLGLGGGSSYSYGSGLGVGGGFSSSSGRAIGGGLSSVGGGSSTIKYTTTSSSSRKSYKH [N171K]

# Variants of: B4
# Settings: with krt38_human KRT38, O76015
row,effect of a mutation on the interaction,Variant
1,disrupting interaction strength,I477N
2,with no effect,N186K
3,with no effect,L484P

# Variants of: B4
# Settings: with krt38_human KRT38, O76015
# Remark: another data set of the same source
row,effect of a mutation on the interaction,Variant
1,with no effect,G219D
